The target in the series is T1, CSEP0064/BEC1054 (Blumeria graminis) (UniProt N1JJ94).
T1 sequence: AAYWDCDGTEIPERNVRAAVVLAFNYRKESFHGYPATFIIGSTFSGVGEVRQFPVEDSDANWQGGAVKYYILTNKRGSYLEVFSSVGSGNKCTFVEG
Put plainly: NMR.

Our source for the Kd values is publication doi:10.1101/291427.

Usually Kd stands for the concentration at which binding is half-saturated.

SRL DNA oligonucleotide returned a Kd of over 10 µM.
